Laboratory results: paper PMC5760271
Like-named read-outs stand apart in the source and are kept apart here.

Legend:
Assay in all cases: limited trypsin proteolysis
SpyCas9 [1] = molecular target: T1, SpyCas9 (Streptococcus pyogenes, UniProt Q99ZW2 1-1368)
FnoCas9 [2] = molecular target: T2, FnoCas9 (Francisella tularensis novicida, UniProt A0Q5Y3 1-1629)
SpyCas9 [3] = molecular target: T1, SpyCas9; remark: listed apart in the source
FnoCas9 [4] = molecular target: T2, FnoCas9; remark: listed apart in the source

T2 sequence (A0Q5Y3 whole entry): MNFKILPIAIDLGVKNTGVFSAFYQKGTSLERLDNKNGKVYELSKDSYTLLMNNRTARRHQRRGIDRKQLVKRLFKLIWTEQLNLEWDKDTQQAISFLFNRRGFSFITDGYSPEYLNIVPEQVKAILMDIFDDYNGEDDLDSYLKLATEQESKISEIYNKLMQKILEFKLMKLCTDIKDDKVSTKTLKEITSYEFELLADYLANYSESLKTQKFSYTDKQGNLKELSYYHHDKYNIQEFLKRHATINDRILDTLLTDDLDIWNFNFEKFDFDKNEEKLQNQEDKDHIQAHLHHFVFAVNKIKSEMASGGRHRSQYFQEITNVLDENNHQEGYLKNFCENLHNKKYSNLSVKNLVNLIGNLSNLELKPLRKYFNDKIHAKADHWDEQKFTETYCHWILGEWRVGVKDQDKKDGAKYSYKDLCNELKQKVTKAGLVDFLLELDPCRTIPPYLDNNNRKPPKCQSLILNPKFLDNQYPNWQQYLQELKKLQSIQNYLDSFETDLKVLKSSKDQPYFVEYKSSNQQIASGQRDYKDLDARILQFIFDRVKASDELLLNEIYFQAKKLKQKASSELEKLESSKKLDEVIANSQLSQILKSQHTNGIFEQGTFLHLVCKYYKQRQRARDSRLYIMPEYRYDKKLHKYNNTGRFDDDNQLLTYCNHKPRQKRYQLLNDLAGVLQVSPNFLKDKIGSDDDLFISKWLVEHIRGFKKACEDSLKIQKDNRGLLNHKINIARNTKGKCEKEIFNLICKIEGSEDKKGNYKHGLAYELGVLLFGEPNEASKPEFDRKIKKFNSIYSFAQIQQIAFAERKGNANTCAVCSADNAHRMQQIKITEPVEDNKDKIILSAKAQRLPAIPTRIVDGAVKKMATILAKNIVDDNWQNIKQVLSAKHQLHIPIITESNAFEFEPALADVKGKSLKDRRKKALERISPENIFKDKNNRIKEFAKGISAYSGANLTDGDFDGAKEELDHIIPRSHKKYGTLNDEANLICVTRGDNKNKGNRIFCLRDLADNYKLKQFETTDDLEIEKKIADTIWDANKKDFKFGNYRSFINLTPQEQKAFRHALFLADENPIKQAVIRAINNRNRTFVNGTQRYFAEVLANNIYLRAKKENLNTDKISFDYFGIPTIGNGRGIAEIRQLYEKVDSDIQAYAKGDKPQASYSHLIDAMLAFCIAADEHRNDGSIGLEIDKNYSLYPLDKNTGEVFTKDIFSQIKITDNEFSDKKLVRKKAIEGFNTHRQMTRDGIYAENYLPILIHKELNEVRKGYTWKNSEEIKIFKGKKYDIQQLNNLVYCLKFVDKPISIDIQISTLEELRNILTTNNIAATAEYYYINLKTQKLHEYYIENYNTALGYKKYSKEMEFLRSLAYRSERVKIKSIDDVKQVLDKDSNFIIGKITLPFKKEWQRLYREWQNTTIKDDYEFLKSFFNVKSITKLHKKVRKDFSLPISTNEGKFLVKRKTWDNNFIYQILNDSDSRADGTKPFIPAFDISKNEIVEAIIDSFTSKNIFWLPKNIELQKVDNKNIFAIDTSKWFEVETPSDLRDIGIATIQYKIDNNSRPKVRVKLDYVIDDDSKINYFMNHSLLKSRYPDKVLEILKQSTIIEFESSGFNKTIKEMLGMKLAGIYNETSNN
T1 sequence (Q99ZW2 whole entry): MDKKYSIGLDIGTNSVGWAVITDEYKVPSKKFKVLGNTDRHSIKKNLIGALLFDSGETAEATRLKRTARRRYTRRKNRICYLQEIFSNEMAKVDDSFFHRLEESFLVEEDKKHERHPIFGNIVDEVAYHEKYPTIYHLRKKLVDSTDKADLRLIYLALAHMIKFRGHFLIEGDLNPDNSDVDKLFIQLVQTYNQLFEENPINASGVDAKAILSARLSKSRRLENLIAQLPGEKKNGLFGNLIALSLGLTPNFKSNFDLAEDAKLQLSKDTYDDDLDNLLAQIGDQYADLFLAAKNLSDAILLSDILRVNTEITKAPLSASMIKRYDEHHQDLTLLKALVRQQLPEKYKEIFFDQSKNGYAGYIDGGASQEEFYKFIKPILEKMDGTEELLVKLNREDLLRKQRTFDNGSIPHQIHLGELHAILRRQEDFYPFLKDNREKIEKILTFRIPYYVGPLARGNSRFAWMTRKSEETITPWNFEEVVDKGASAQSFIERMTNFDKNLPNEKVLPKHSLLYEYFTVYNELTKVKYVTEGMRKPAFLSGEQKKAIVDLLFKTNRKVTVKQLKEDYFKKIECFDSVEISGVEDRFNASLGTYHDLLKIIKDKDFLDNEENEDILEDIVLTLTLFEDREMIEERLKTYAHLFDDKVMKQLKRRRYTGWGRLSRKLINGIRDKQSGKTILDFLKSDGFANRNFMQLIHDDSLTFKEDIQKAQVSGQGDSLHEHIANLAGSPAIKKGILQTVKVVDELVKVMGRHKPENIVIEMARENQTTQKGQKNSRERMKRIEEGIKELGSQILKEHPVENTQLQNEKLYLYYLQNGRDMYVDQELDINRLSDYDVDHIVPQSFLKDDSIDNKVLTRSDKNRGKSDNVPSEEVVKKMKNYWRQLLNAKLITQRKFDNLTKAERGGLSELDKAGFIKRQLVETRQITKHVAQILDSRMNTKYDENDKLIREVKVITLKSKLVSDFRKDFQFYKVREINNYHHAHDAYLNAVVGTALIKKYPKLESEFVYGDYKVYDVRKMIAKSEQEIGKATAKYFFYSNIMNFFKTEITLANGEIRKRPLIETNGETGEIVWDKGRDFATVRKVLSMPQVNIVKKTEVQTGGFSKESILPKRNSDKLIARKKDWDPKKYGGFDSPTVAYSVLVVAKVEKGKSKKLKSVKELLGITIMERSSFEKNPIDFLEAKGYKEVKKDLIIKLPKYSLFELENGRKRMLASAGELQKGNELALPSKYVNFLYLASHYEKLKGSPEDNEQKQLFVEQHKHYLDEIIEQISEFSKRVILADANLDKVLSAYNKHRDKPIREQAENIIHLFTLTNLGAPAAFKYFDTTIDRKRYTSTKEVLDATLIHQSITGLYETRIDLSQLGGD

B1: 60-mer ss oligo (197-FR) (ssDNA)
DNA: AGCAGATTGTACTGAGAGTGCACCATATGCGGTGTGAAATACCGCACAGATGCGTAAGGA
B1: binds (SpyCas9 [1]); binds (FnoCas9 [2]).

B2: SpyCas9 sgRNA (structured_RNA)
RNA: GGGAUUUCUUCUUGCGCUUUUUGUUUUAGAGCUAUGCUGUUUUGGAAACAAAACAGCAUAGCAAGUUAAAAUAAGGCUAGUCCGUUAUCAACUUGAAAAAGUGGCACCGAGUCGGUGCUUUUUU
B2: binds (SpyCas9 [3]).

B3: FnoCas9 crRNA-tracrRNA (structured_RNA)
RNA 1: GGGAUAACUCAAUUUGUAAAAAAGUUUCAGUUGCUGAAUUAUUUGGUAAAC
RNA 2: GGGCCAAAUAAUUAAUGCUCUGUAAUCAUUUAAAAGUAUUUUGAACGGACCUCUGUUUGACACGUCUGAAUAACUAAAAAGCAAAAAUUUGCCACCUAAGUGGCUUUUUUU
B3: binds (FnoCas9 [4]).
